Laboratory results published in publication PMC3433420, “Comprehensive Binary Interaction Mapping of SH2 Domains via Fluorescence Polarization Reveals Novel Functional Diversification of ErbB Receptors” (PLoS ONE, 2012).
Values joined by “and” are separate entries in the source; they are usually repeats but may differ in a detail not shown here. Equal entries are not always repeated. Non-standard residues stand in square brackets, D forms with d. No end group written: not given here. pY = N[C@@H](Cc1ccc(OP(=O)(O)O)cc1)C(=O)O; Rhodamine = not defined here

How the values were obtained:
Experiment in all cases: peptide or protein array; SH2/PTB proteins spotted on aldehyde slides, rhodamine peptide titrated in buffer B (20 mM HEPES, 100 mM KCl, 0.1% Tween-20, 5 mM DTT, pH 7.8), 1 h at room temperature; replicate assays
Conditions in all cases: both partners purified
[1] = biological target: T1, PLCG2 N-terminal SH2 domain (human)
T1 construct: PLCG2, human; source: bacterial expression, purified
T1 sequence (P16885 whole entry, looked up): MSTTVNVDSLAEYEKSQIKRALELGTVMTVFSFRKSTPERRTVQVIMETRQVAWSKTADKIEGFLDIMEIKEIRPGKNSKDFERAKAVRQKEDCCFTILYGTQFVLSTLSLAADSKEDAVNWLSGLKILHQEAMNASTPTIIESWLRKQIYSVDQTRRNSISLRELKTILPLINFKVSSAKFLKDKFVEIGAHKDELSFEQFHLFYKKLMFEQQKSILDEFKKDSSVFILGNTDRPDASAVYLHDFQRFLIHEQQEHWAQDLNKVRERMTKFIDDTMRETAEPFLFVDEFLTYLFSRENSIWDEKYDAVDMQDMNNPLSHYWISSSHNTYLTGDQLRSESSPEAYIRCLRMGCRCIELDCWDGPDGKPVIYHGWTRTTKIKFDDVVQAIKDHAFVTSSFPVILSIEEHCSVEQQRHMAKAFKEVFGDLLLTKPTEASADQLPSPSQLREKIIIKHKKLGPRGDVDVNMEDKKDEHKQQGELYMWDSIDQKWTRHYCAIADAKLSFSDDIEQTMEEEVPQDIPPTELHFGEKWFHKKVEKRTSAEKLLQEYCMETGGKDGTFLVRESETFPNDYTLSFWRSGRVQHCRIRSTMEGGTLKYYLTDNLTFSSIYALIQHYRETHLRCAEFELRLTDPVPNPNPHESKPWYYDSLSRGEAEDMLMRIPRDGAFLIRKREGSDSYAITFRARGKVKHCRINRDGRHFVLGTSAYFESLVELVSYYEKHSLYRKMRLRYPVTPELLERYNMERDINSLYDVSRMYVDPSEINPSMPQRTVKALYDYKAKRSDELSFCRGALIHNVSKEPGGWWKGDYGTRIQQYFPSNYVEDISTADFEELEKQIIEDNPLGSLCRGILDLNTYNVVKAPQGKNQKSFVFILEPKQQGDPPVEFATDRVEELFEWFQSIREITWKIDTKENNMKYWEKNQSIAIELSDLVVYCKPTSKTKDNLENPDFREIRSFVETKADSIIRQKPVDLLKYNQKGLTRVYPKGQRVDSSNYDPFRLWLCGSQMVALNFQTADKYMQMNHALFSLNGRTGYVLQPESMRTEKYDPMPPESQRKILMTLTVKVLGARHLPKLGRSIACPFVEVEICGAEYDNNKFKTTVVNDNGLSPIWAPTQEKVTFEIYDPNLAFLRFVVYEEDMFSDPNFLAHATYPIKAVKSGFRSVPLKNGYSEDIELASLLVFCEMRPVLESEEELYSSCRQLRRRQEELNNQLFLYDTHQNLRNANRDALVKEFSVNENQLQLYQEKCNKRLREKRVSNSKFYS

[2] = biological target: T2, ZAP70 tandem SH2 domains (human)
T2 construct: ZAP70, human; also called ZAP70-NC; source: bacterial expression, purified

[3] = biological target: T3, PIK3R1 tandem SH2 domains (human, UniProt P27986 1-724)
T3 construct: PIK3R1, human; also called PIK3R1-NC; source: bacterial expression, purified

[4] = biological target: T4, GRB10 SH2 domain (human, UniProt Q13322 493-574)
T4 construct: GRB10, human; source: bacterial expression, purified
T4 sequence (looked up): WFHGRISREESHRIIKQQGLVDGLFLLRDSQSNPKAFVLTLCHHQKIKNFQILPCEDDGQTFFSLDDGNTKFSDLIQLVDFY

T3 sequence (P27986 whole entry, the tested form may be a part): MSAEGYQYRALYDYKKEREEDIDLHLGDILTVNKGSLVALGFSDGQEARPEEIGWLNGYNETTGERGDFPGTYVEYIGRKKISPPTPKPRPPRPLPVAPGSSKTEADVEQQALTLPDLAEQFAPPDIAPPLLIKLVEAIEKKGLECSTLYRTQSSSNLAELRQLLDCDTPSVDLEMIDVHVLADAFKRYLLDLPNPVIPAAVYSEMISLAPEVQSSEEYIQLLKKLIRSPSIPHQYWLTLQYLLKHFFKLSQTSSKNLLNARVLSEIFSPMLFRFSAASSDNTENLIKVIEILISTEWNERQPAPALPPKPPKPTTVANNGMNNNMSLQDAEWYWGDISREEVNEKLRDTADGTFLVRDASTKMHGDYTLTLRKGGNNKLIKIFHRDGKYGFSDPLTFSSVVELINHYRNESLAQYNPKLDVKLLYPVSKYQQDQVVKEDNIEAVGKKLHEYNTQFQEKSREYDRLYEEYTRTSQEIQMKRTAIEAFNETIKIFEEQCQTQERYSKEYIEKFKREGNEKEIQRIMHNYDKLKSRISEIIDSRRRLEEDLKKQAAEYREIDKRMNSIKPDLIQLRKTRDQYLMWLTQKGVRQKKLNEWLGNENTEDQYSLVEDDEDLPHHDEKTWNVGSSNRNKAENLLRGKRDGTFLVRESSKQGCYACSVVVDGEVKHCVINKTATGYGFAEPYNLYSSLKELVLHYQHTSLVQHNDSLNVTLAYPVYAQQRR
T2 sequence (P43403 whole entry, the tested form may be a part): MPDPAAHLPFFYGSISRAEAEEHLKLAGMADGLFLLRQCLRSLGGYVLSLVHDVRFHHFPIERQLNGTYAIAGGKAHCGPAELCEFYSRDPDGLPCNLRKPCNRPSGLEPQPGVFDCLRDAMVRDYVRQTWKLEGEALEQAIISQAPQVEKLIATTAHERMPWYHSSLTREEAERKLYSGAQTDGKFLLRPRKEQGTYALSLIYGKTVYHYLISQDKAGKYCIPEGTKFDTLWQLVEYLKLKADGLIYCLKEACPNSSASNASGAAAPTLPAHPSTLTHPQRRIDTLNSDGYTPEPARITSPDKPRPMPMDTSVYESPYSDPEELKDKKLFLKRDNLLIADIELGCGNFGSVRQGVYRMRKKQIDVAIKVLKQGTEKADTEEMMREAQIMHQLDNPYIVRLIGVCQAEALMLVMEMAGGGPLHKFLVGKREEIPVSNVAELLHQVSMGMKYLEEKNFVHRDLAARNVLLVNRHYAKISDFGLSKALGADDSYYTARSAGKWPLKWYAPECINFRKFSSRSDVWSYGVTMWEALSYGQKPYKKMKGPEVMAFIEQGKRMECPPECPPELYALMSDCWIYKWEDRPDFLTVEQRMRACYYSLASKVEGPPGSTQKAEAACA

Rhodamine-ETDG[pY]VAPLTCSD (reading uncertain) [ErbB2 pY1127 phosphopeptide, rhodamine-labelled, for protein microarrays]
Kd [1]: 4.16 µM | Kd [2]: 2.01 µM and 2.41 µM | Kd [3]: 0.0109 µM and 0.01 µM | Kd [4]: 1.9 µM and 2.34 µM
